Assay results reported in patent US20240116985A1 (published 2024).
Starred links: 1 amine or outer side, 2 acyl side, 3 side chain; linkers in the order of their positions; H or OH if unused. Positions of bridges follow the written chain, without caps; N, C: chain ends. Non-standard residues stand in square brackets, D forms with d. Primed or numbered codes have the meaning given here. PyrS2″ = (S)-3-amino-1-((pent-4-en-1-yloxy)carbonyl)pyrrolidine-3-carboxylic acid (stapling residue), C=CCCCOC(=O)N1CC[C@@](N[*:1])(C(=O)[*:2])C1; SeN″ = (S)-5-(((allyloxy)carbonyl)(methyl)amino)-2-amino-2-methylpentanoic acid (stapling residue), C=CCOC(=O)N(C)CCC[C@](C)(N[*:1])C(=O)[*:2]; B5(16) = 2-amino-2-(pent-4-en-1-yl)hept-6-enoic acid = 2,2-bis(4-pentenyl)glycine (stitching residue), C=CCCCC(CCCC=C)(N[*:1])C(=O)[*:2]; B5(23) = 2-amino-2-(pent-4-en-1-yl)hept-6-enoic acid (2,2-bis(4-pentenyl)glycine), stitching residue, C=CCCCC(CCCC=C)(N[*:1])C(=O)[*:2]; B5(4) = 2,2-bis(4-pentenyl)glycine = 2-amino-2-(pent-4-en-1-yl)hept-6-enoic acid (stitching residue), C=CCCCC(CCCC=C)(N[*:1])C(=O)[*:2]; TfeGA = (S)-2-amino-3-((carboxymethyl)(2,2,2-trifluoroethyl)amino)propanoic acid, O=C([C@H](CN(CC(=O)[*:3])CC(F)(F)F)N[*:1])[*:2]; B5(9) = 2-amino-2-(pent-4-en-1-yl)hept-6-enoic acid (2,2-bis(4-pentenyl)glycine), C=CCCCC(CCCC=C)(N[*:1])C(=O)[*:2]; 23FF = 2,3-difluoro-L-phenylalanine, O=C([C@H](Cc1cccc(F)c1F)N[*:1])[*:2]; Phe(3,5-F2) = N[C@@H](Cc1cc(F)cc(F)c1)C(=O)O; Phe(3-F) = N[C@@H](Cc1cccc(F)c1)C(=O)O; His(τ-Me) = Cn1cnc(C[C@H](N)C(=O)O)c1; Bta = N[C@@H](Cc1csc2ccccc12)C(=O)O; αAllylPro = C=CC[C@@]1(C(=O)O)CCCN1; tBuAla = CC(C)(C)C[C@H](N)C(=O)O; 3Thi = N[C@@H](Cc1ccsc1)C(=O)O; S8 = C=CCCCCCC[C@](C)(N)C(=O)O; 34ClF = not defined here

T1: full-length beta-Catenin (Uniprot ID P35222) (Homo sapiens (Human), UniProt P35222 1-781)
T1 construct: The assay text says full-length beta-Catenin (Uniprot ID P35222); also called bCat; B-Catenin
T1 sequence: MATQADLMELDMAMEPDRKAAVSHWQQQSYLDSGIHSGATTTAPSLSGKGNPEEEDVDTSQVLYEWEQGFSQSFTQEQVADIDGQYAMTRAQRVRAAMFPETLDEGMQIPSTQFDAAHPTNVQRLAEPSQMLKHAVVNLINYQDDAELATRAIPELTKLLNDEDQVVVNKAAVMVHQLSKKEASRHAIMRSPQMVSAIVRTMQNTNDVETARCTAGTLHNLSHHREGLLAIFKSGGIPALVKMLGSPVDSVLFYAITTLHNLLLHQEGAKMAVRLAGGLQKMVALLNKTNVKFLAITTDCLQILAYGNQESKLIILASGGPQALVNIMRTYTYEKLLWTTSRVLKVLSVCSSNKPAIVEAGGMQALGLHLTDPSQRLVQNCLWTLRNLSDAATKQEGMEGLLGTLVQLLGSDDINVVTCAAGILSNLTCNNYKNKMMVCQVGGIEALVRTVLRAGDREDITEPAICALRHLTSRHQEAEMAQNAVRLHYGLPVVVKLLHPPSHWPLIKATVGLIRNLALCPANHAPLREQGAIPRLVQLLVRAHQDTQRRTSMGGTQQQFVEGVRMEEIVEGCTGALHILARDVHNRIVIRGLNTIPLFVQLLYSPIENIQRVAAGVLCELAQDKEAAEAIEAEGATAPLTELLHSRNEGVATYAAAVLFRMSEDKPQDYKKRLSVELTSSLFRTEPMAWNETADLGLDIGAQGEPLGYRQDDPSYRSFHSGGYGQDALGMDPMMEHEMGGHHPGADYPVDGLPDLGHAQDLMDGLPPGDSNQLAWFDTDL

T2: B-cat-Halo (beta-catenin HaloTag construct expressed in HEK293 cells) (UniProt P35222 1-781)
T2 sequence (looked up): T1 sequence

B1: I-391 (peptide)
peptide: Ac-[αAllylPro]DA[B5(9)]DEAA[23FF]V[S8]F[Bta]Q-NH2
modifications: staple 1-4, 4-11; also: later eluting HPLC isomer, E/Z not assigned
notes: Stapled peptide; also called Ac-PL3-Asp-Ala-B5-Asp-Glu-Ala-Ala-23FF-Val-S8-Phe-BztA-Gln-NH2
B2: I-394 (peptide)
peptide: Ac-[αAllylPro]DA[B5(9)]DEAAFV[S8][Phe(3,5-F2)][Bta]Q-NH2
modifications: staple 1-4, 4-11
notes: Stapled peptide; also called Ac-PL3-Asp-Ala-B5-Asp-Glu-Ala-Ala-Phe-Val-S8-35FF-BztA-Gln-NH2
B3: I-390 (peptide)
peptide: Ac-[αAllylPro]DA[B5(9)]DEAA[23FF]V[S8]F[Bta]Q-NH2
modifications: staple 1-4, 4-11; not fully specified; printed as Ac-PL3-Asp-Ala-B5-Asp-Glu-Ala-Ala-23FF-Val-S8-Phe-BztA-Gln-NH2
notes: as for B1
B4: I-389 (peptide)
peptide: Ac-[αAllylPro]DA[B5(9)]DEAAFV[S8][23FF][Bta]Q-NH2
modifications: staple 1-4, 4-11; also: later eluting HPLC isomer, E/Z not assigned
notes: Stapled peptide; also called Ac-PL3-Asp-Ala-B5-Asp-Glu-Ala-Ala-Phe-Val-S8-23FF-BztA-Gln-NH2
B5: I-388 (peptide)
peptide: XDAXDEAAFVXFXQ
modifications: not fully specified; N-terminal Ac; PL3 at 1, B5 at 4, S8 at 11 (stapled 1-4 and 4-11 by olefin metathesis); 23FF at 12; BztA at 13; C-terminal NH2
notes: as for B4
B6: I-410 (peptide)
peptide: Ac-[αAllylPro]DV[B5(23)]DEAAFQ[S8]F[Bta]Q-NH2
modifications: staple 1-4, 4-11
notes: Stapled peptide; also called Ac-PL3-Asp-Val-B5-Asp-Glu-Ala-Ala-Phe-Gln-S8-Phe-BztA-Gln-NH2
B7: I-403 (peptide)
peptide: Ac-[αAllylPro]DA[B5(16)]D[His(τ-Me)]AAFV[S8][Phe(3-F)][Bta]Q-NH2
modifications: staple 1-4, 4-11; not fully specified
notes: Stapled peptide; also called Ac-PL3-Asp-Ala-B5-Asp-1meH-Ala-Ala-Phe-Val-S8-3FF-BztA-Gln-NH2
B8: I-400 (peptide)
peptide: Ac-[αAllylPro]DA[B5(16)]DHAAFQ[SeN″][Phe(3-F)][Bta]Q-NH2
modifications: staple 1-4, 4-11; not fully specified; printed as Ac-PL3-Asp-Ala-B5-Asp-His-Ala-Ala-Phe-Gln-SeN-3FF-BztA-Gln-NH2
notes: Stapled peptide; also called Ac-PL3-Asp-Ala-B5-Asp-His-Ala-Ala-Phe-Gln-SeN-3FF-BztA-Gln-NH2
B9: I-407 (peptide)
peptide: Ac-[αAllylPro]DI[B5(23)]DEAAFQ[S8]F[Bta]Q-NH2
modifications: staple 1-4, 4-11
notes: Stapled peptide; also called Ac-PL3-Asp-Ile-B5-Asp-Glu-Ala-Ala-Phe-Gln-S8-Phe-BztA-Gln-NH2
B10: I-406 (peptide)
peptide: Ac-[αAllylPro]DA[B5(23)]DEAAFQ[S8]F[Bta]Q-NH2
modifications: staple 1-4, 4-11
notes: Stapled peptide; also called Ac-PL3-Asp-Ala-B5-Asp-Glu-Ala-Ala-Phe-Gln-S8-Phe-BztA-Gln-NH2
B11: I-398 (peptide)
peptide: Ac-[αAllylPro]DA[B5(16)]DHAAFV[SeN″][Phe(3-F)][Bta]Q-NH2
modifications: staple 1-4, 4-11; not fully specified; printed as Ac-PL3-Asp-Ala-B5-Asp-His-Ala-Ala-Phe-Val-SeN-3FF-BztA-Gln-NH2
notes: Stapled peptide; also called Ac-PL3-Asp-Ala-B5-Asp-His-Ala-Ala-Phe-Val-SeN-3FF-BztA-Gln-NH2
B12: I-399 (peptide)
peptide: XDAXDHAAFQXFXQ
modifications: not fully specified; N-terminal Ac; PL3 at 1, B5 at 4, S8 at 11 (stapled 1-4 and 4-11 by olefin metathesis); 3FF at 12; BztA at 13; C-terminal NH2
notes: Stapled peptide; also called Ac-PL3-Asp-Ala-B5-Asp-His-Ala-Ala-Phe-Gln-S8-3FF-BztA-Gln-NH2
B13: I-396 (peptide)
peptide: Ac-[αAllylPro]DA[B5(9)]DHAAFV[S8][Phe(3-F)][Bta]Q-NH2
modifications: staple 1-4, 4-11; also: earlier eluting HPLC isomer, E/Z not assigned
notes: Stapled peptide; also called Ac-PL3-Asp-Ala-B5-Asp-His-Ala-Ala-Phe-Val-S8-3FF-BztA-Gln-NH2
B14: I-397 (peptide)
peptide: XDAXDHAAFVXFXQ
modifications: not fully specified; N-terminal Ac; PL3 at 1, B5 at 4, S8 at 11 (stapled 1-4 and 4-11 by olefin metathesis); 3FF at 12; BztA at 13; C-terminal NH2
notes: as for B13
B15: I-2185 (peptide)
peptide: Ac-[αAllylPro]D[tBuAla][B5(4)]D[TfeGA]AAFL[PyrS2″][3Thi][Bta]Q-NH2
modifications: staple 1-4, 4-11; not fully specified (residue 9); also: later-eluting HPLC isomer peak
B16: I-2182 (peptide)
peptide: Ac-[αAllylPro]D[tBuAla][B5(4)]DDAAFN[PyrS2″][3Thi][34ClF]Q-NH2
modifications: staple 1-4, 4-11; reading uncertain; also: printed as Ac-PL3-Asp-Npg-B5-Asp-Asp-Ala-Ala-Phe-Asn-PyrS2-3Thi-34C1F-Gln-NH2
B17: I-2183 (peptide)
peptide: Ac-[αAllylPro]D[tBuAla][B5(4)]DDAAFL[PyrS2″][3Thi][34ClF]Q-NH2
modifications: staple 1-4, 4-11; reading uncertain; also: printed as Ac-PL3-Asp-Npg-B5-Asp-Asp-Ala-Ala-Phe-Leu-PyrS2-3Thi-34C1F-Gln-NH2

Biological target: T1, full-length beta-Catenin (Uniprot ID …)
Test: fluorescence polarization competition; full-length beta-catenin with 5FAM-labeled TCF4 (residues 10-53) probe as competitor
Protocol: The plate was incubated protected from light for 60 minutes at 20° C. prior to read. Reads were performed on a CLARIOstar plate reader (BMG Labtech) in duplicate, and data were fitted to a 1:1 binding model with hill slope using an in-house script. All provided concentrations are final concentrations.

IC50	Binder
1.91 µM	B1
5 µM	B2
3.42 µM	B3
5 µM	B4
5 µM	B5
0.05 µM	B6
2.13 µM	B7
3.59 µM	B8
0.03 µM	B9
0.094 µM	B10
2.16 µM	B11
2.5 µM	B12
3.43 µM	B13
2.23 µM	B14

Biological target: T2, B-cat-Halo (beta-catenin HaloTag …)
Test: cell-based or functional assay

NanoBRET Abs IC50	Binder
6.1 µM	B15
11.1 µM	B16
5 µM	B17
